Test results reported in US20140235553A1 (REGENTS OF THE UNIVERSITY OF COLORADO A BODY CORPRATE, published 2014).

B1: NTD-αB crystallin fusion protein (other)
chain: MGSRVQIRCRFRNSTRDIAIHHPWIRRPFFPFHSPSRLFDQFFGEHLLESDLFPTSTSLSPFYLRPPSFLRAPSWFDTGLSEMRLEKDRFSVNLDVKHFSPEELKVKVLGDVIEVHGKHEERQDEHGFISREFHRKYRIPADVDPLTITSSLSSDGVLTVNGPRKQVSGPERTIPITREEKPAVTAAPKK
notes: also called NTD-HSPB5; A B NgC

Experiments:
[1] = biological target: the molecule itself; experiment: size exclusion chromatography (Superose 6), self-association into oligomeric complexes
[2] = biological target: the molecule itself; experiment: size exclusion chromatography, self-association into oligomeric complexes
[3] = biological target: B1; experiment: subunit exchange: AlexaFluor-labeled NTD-αB crystallin with 10-fold molar excess of unlabeled αB crystallin at 37° C., size exclusion FPLC, fluorescence of fractions

B1
binding result [1]: binds

B2: NTD-αA crystallin fusion protein (other)
chain: MGSRVQIRCRFRNSTRDVTIQHPWFKRTLGPFYPSRLFDQFFGEGLFEYDLLPFLSSTISPYYRQSLFRTVLDSGISEVRSDRDKFVIFLDVKHFSPEDLTVKVQDDFVEIHGKHNERQDDHGYISREFHRRYRLPSNVDQSALSCSLSADGMLTFCGPKIQTGLDATHAERAIPVSREEKPTSAPSS
notes: also called NTD modified α-crystallin subunit (αA)
binding result [2]: binds

B3: αB-crystallin (HSPB5), no transduction peptide (other)
chain: MDIAIHHPWIRRPFFPFHSPSRLFDQFFGEHLLESDLFPTSTSLSPFYLRPPSFLRAPSWFDTGLSEMRLEKDRFSVNLDVKHFSPEELKVKVLGDVIEVHGKHEERQDEHGFISREFHRKYRIPADVDPLTITSSLSSDGVLTVNGPRKQVSGPERTIPITREEKPAVTAAPKK
notes: also called native αB crystallin; unfused αB crystallin
binding result [3]: binds
